Source: publication PMC7728236 (PLoS Pathogens, 2020)

Biological target: the molecule itself
Test: cryo-EM structure

B1: full-length hemagglutinin (HA) of influenza virus A/Hong Kong/1/1968 (H3N2), trypsin-cleaved into HA1/HA2 (natural protein)
chain 1: not shown
chain 2: not shown
notes: copies: 3 + 3
stoichiometry N: 3
